Source: article PMC8749410

Experiments:
[1] = target: human recombinant complement receptor 3 (integrin αMβ2, CD11b/CD18) (human) (UniProt P11215); experiment: SPR; Biacore S200; HIV virions flowed over immobilised rI-domain or rCR3; blank ethanolamine reference flow cell; mean Kd ± SD from a minimum of two technical repeats on each of two flow cells
[2] = target: human recombinant I-domain of the CR3 alpha subunit CD11b (human); experiment: as above
[3] = target: complement receptor 3 (CD11b/CD18) on primary human cervical epithelial (Pex) cells (human (endogenous in Pex cells)) (UniProt P11215); experiment: fluorometric adherence assay on cells; virions 10 ng/mL p24 equivalent, 2 h on CHO or Pex cells; cells fixed, HIV immunolabelled (goat polyclonal LS-C103187, FITC secondary) and quantified against a standard curve of virus
[4] = target: human complement receptor 3 (CD11b/CD18) on CHO-CR3 cells (human) (UniProt P11215); experiment: as above
[5] = target: complement receptor 3 (CD11b/CD18) on primary human cervical epithelial (Pex) cells (human (endogenous in Pex cells)) (UniProt P11215)

Row | Substance | Kd [1] [nM] | Kd [2] [nM] | adherent virus (p24 HIV equivalent) [3] [ng/mL] | percent of the inoculum adherent [3] [%] | adherent virus (p24 HIV equivalent) [4] [ng/mL] | percent of the inoculum adherent [4] [%] | HIV-1 transcytosis across a polarized Pex cell monolayer in Transwells, no competimer; HIV p24 in the basal chamber as percent of the inoculum (10 ng/mL p24 equivalent) [5] [%]
1 | HIV-1 transmitted founder strain WITO virions propagated in primary human PBMCs (envelope glycoprotein gp120/gp41 on the virion surface) (complex) | 10.6 | 7.92 | – | – | – | – | –
2 | HIV-1 transmitted founder strain RHPA virions produced in HEK293T cells (envelope glycoprotein gp120/gp41 on the virion surface) (complex) | 249 | 912 | – | – | – | – | –
3 | HIV-1 transmitted founder strain WITO virions, producer cells not stated (envelope glycoprotein gp120/gp41 on the virion surface) (complex) | – | – | 1.35 | 13 | 2.4 | 24 | –
4 | HIV-1 strain NL4-3 virions produced in HEK293T cells (envelope glycoprotein gp120/gp41 on the virion surface) (complex) | 192 | 90.9 | – | – | – | – | –
5 | HIV-1 transmitted founder strain REJO virions produced in HEK293T cells (envelope glycoprotein gp120/gp41 on the virion surface) (complex) | 90.3 | 265 | – | – | – | – | –
6 | HIV-1 strain NL4-3 AD8 virions produced in HEK293T cells (envelope glycoprotein gp120/gp41 on the virion surface) (complex) | 337 | 239 | 1.01 | 10 | – | – | –
7 | HIV-1 transmitted founder strain WITO virions produced in HEK293T cells (envelope glycoprotein gp120/gp41 on the virion surface) (complex) | 242 | 298 | – | – | – | – | 4
